The results in this text go back to patent US20100278865A1.

This test concerns the target E2 protein of J6/JFH-1 (3×FLAG) virus particles (hepatitis C virus, J6CF strain (genotype 2a)). As to the kind of experiment: batch capture of virus particles on M2 antibody agarose, FLAG peptide elution, HCV Core ELISA of eluates. Background: An ELISA detects its analyte on a solid surface through an enzyme-linked reagent.

For “anti-FLAG monoclonal antibody (M2 antibody, Sigma)”, the purification efficiency was 5%.
